Patent EP0562624A2, “Stabilization of functional proteins” (Modrovich, Ivan E., priority 1992, dated 1993)

Assay: Stability of HRP in uric acid single reagent solution
Assay type: physicochemical
Conditions: Uric Acid SR Model
Protocol: As in Example 2 Horseradish Peroxidase (HRP) was dissolved in an aqueous base containing 50 mg/ml BSA and 10 mg/ml Tris with no pH adjustment. HRP concentration was 30 mg/ml.
EDAC and PSL solutions were formed as in Example 2 as in relative concentrations of 100 mg/ml and 20 mg/ml. The PSL solution was added in an amount of 0.14 ml per 0.5ml of HRP solution dropwise over an ice bath. This was followed by the addition of the EDAC solution in an amount of 0.05 ml per 0.5 ml of HRP solution. The mixture was stored at 4°C for 4 days and evaluated for the stability of HRP in a uric acid single reagent solution.
This is reported in Table 4 where the Control 4 is the unmodified horseradish peroxidase.

Example 4: Horseradish Peroxidase (HRP) stabilized with PSL and EDAC
%HRP of 4°C (1 day at 4°C): 100% | %HRP of 4°C (1 day at 41°C): 70% | %HRP of 4°C (3 days at 4°C): 100% | %HRP of 4°C (3 days at 41°C): 35%
